# Results as given in publication PMC11939060.
# Read-outs that look alike come from different tables or passages of the source.
# Key:
# Experiment in all cases: fluorescence polarization
# [1] = target: T1, DNMT3B Δ214 (3BΔ214);DNMT3L CLD (3L) (human;human?, UniProt Q9UBC3;Q9UJW3 215-853;179-379, |)
# [2] = target: T1, DNMT3B Δ214 (3BΔ214);DNMT3L CLD (3L); remark: listed apart in the source
# [3] = target: T1, DNMT3B Δ214 (3BΔ214);DNMT3L CLD (3L); remark: listed apart in the source
# [4] = target: T1, DNMT3B Δ214 (3BΔ214);DNMT3L CLD (3L); remark: listed apart in the source
# [5] = target: T1, DNMT3B Δ214 (3BΔ214);DNMT3L CLD (3L); remark: listed apart in the source
# DNMT3B PWWP K268A = DNMT3B PWWP K268A (human, UniProt Q9UBC3 206-355, K268A)
# DNMT3B PWWP domain = DNMT3B PWWP domain (human, UniProt Q9UBC3 206-355)
# T1 sequence (Q9UJW3 179-379, stated change not applied, chain 2 of 2, other chains not shown): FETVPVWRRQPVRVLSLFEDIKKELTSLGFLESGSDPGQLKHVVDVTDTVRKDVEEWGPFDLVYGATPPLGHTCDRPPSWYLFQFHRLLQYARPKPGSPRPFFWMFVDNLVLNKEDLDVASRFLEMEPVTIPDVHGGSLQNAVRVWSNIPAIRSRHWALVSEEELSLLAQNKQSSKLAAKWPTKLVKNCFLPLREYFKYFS
binder,measurement,setting,value
30-bp FAM dsDNA (dsDNA) DNA 1: CTGAATACTACTTGCGCTCTCTAACCTGAT DNA 2: ATCAGGTTAGAGAGCGCAAGTAGTATTCAG,Kd,[1],3.5 ± 0.3 µM
same,Kd,[2],1390 ± 120 nM
same,Kd,[3],2340 ± 150 nM
same,Kd,[4],850 ± 70 nM
same,Kd,[5],3.51 ± 0.28 µM
same,Kd,DNMT3B PWWP K268A,24.3 ± 2 µM
same,Kd,DNMT3B PWWP domain,9.12 ± 0.67 µM
